# Results from patent US20230250164A1 (AB2 BIO, published 2023).
# What was measured:
# [1] = target: T1, IL-18/IL-18BP complex (human, UniProt Q14116 37-193); assay: Luminex, beads linked to IL-18BP then complexed to IL-18, antibody binding
# T1 construct: In the third screening step: Luminex beads linked to IL-18BP and then complexed to IL-18; also called IL-18 previously complexed to IL-18BP; complex IL-18/IL-18BP
# T1 sequence 1: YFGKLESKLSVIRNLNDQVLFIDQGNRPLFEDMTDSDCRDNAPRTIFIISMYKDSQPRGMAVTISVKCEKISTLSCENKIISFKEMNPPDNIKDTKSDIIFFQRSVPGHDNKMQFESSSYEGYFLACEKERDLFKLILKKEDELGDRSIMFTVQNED
# T1 sequence 2: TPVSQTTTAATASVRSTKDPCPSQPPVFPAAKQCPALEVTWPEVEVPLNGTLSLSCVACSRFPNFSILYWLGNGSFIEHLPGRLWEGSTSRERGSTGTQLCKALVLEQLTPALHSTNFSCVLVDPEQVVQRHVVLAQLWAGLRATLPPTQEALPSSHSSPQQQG
# Procedure: (§1) Mice were vaccinated aginst human interleukin-18 using a technology allowing immunization with properly folded proteins. […] Following immunization, B cells were isolated from spleen and hybridized following standard hybridoma technology. […] The screening was performed in 3 sequential and selective steps: […]
# [2] = target: T2, human interleukin-18 (IL-18), recombinant (human, UniProt Q14116 37-193); assay: Luminex, IL-18 on beads, hybridoma antibody
# T2 construct: Commercial recombinant human IL-18; also called human IL-18; free IL-18
# T2 sequence (looked up): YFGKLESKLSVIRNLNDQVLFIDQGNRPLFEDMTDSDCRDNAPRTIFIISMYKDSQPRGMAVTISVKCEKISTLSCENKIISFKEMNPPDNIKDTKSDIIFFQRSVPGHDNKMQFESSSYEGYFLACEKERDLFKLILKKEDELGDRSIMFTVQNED
# Procedure: as §1
# [3] = target: T1, IL-18/IL-18BP complex; assay: Luminex, third screening step against first
# Procedure: as §1
# [4] = target: T2, human interleukin-18 (IL-18), …; assay: Luminex competition, antibody pre-bound to IL-18 beads, biotinylated IL-18BP as competitor is detected
# [5] = target: T2, human interleukin-18 (IL-18), …; assay: free IL-18 ELISA with plate-bound IL-18BP as capture; 400 pg/ml IL-18 in PBS with 5% BSA spiked with soluble IL-18BP at 0 to 10000 pg/ml; soluble IL-18BP competes with the capture IL-18BP
# From the text: Microplates can also be dried in a stabilizing solution allowing storage at room temperature and then be reconstituted by hydration when needed for assay.
# [6] = target: T2, human interleukin-18 (IL-18), …; assay: free IL-18 ELISA with IL-18BP capture; 400 pg/mL IL-18 in PBS 5% BSA spiked with IL-18BP
# Procedure: After that, 20 μl sample volume containing biological fluid or standard is dispensed per microplate well. Non-diluted or diluted biological fluid can be but is not restricted to serum, urine, tear, saliva, bile, sweat, exhalation or expiration, sputum, bronchoalveolar fluid, sebum, cellular, gland, mucosa or tissue secretion, biopsy, homogenized tissue. […] The plates are sealed and then incubated under gentle shaking for free IL-18 capture. […] The microplate wells are the washed extensively with the appropriate buffer and then, 100 μl buffer developing mixture is added to each well. The developing mixture contains a streptavidin-conjugated enzyme such as peroxidase or alkaline phosphatase. […] The resulting reactions are then monitored with a microplate reader at an appropriate nanometer wavelength for absorbance or fluorescence of the produced reagent.
Binder,fluorescence intensity (monoclonal antibody binding on IL-18 previously complexed to IL-18BP) [1] [fluorescence intensity],fluorescence intensity (monoclonal antibody binding on IL-18) [2] [fluorescence intensity],fold inhibition (binding on IL-18 complexed to IL-18BP against binding on IL-18) [3] [fold],fluorescence intensity (IL-18BP binding on IL-18 previously complexed to monoclonal antibody) [4] [fluorescence intensity],IC50 (read off the curve) [5] [ng/mL],molar ratio IL-18BP/IL-18 at which free IL-18 is near background [6] [fold]
"Antibody 132H4 (antibody, V domains shown, Mouse hybridoma monoclonal antibody) VH: EVKLVESGGGLVKPGGSLKLSCAASGFTFSNYAMSWVRQNPAKRLEWVATISSGGANIYYPDSVKGRFIISRDNARNTLYLQMSSLRSEDTAMYYCARGDYFNHFWFAYWGQGTLVTVSA VL: DVLMTQTPLSLPVSLGDQASISCRSSQSIVHSNGNTYLEWYLQKPGQSPKFLIYKVSNRFSGVPDRFSGSGSGTDFTLKINRVEAEDLGIYYCFQGSHVPWTFGGGTKLEIK",28,23800,> 500,1490,,
"recombinant human IL-18 Binding Protein (IL-18BP) (other, Biotinylated in the second Luminex screening step; also called human IL-18BP; hIL-18BP) TPVSQTTTAATASVRSTKDPCPSQPPVFPAAKQCPALEVTWPEVEVPLNGTLSLSCVACSRFPNFSILYWLGNGSFIEHLPGRLWEGSTSRERGSTGTQLCKALVLEQLTPALHSTNFSCVLVDPEQVVQRHVVLAQLWAGLRATLPPTQEALPSSHSSPQQQG",,,,,~2,~15
"Antibody 109A6 (antibody, V domains shown, Mouse hybridoma monoclonal antibody) VH: EVQLQQSGAELVKPGASVKLSCTASGFKIKDTYIHWVIQRPAQGLEWIGRIDPANGNTIYGSKFQGKATLTADTSSNTAYIHLSSLTSGDSAVYYCAGYVWFAYWGQGTLVTVSA VL: DVVMTQVPLSLPVSLGDQASISCRSSQRLVHSNGNTYLHWFLQKPGQSPKLLIYTVSNRFSGVPDRFSGSGSGTDFTLKISRVEAEDLGVYFCSQSTLVPWTFGGGTKLEIK",33,25800,> 500,913,,
"Antibody 131B4 (antibody, V domains shown, Mouse hybridoma monoclonal antibody) VH: EVQVQQSGAELVKPGASVKLSCTASGFKIKDTYIHWLKQRPEQGLEWIGRIDPANGNTIYGSKFQGKATITADTSSNTAYIQLSSLTSGDTAVYFCAGYVWFAYWGQGTLVTVSA VL: DAVLTQTPLSLPVSLGDQASISCTSSQSLVHSNGNTYLHWYLQKPGQSPKLLIYKVSDRFSGVPDRFSGSGSGTDFTLMITRVEAEDLGVYFCSQSSLVPWTFGGGTKLEVK",41,24800,> 500,1660,,
"Antibody 107C6 (antibody, V domains shown, Mouse hybridoma monoclonal antibody; also called clone #107C6) VH: QIQLVQSGPELKKPGETVKLSCRASGYTFTNYGMNWVKQAPGKGLKWMGWINTYSGVPTYADDFKGQFAFSLETSAATAFLQINNLKDEDTATYFCAREGYSTTRSMDYWGQGTSVTVSS VL: DIVMSQSPSSLAVSAGEKVTMSCKSSQSLLDSRTRKNYLVWYQQKPGQSPKLLIYWASTRGSGVPDRFTGSGSGTDFTLTISSVQAEDLAVYYCKQSYNLRTFGGGTKLEIK",33,26200,> 500,1390,,
monoclonal anti-IL-18 antibody clone 131H1 (antibody) chain 1: QVQLKQSGPGLVQPSQSLSITCTVSGFSLTSYGVHWVRQSPGKGLEWLGVIWSGGSTDYNAAFISRLSISKDNSKSQVFFKMNSLQADDTAIYYCARSYDYDGRGYFDYWGQGTTLTVSS chain 2: DIQMTQSPASLSASVGETVTITCRASENVYRYLAWYQQRQGKSPQLLVYSAKTLAEGVPSRFSGSGSGTQFSLKINTLQPEDFGTYYCQHHYNTPLTFGAGTKLELK chain 3: DIVMSQSPSSLAVSAGEKVTMSCKSSQSLFNSKTRKNYLAWFQQKPGQSPELLIYWASTRKSGVPDRFTGSGSGTDFTLTISSVQAEDLAVYYCKQSYNLWTFGGGTKLEIK,24,24800,> 500,1030,,
"Antibody 108F8 (antibody, V domains shown, Mouse hybridoma monoclonal antibody) VH: QIQLVQSGPDSKKPGETVKLSCRASGYTFTNYGMNWVKQAPGKGLKWMGWINTYSGVPTYADDFKGQFAFSLETSAATAFLQINNLKDEDTATYFCAREGYSTTRSMDYWGQGTSVTVSS VL: DIVMSQSPSSLAVSAGEKVTMSCKSSQSLLDSRTRKNYLVWYQQKPGQSPKLLIYWASTRGSGVPDRFTGSGSGTDFTLTISSVQAEDLAVYYCKQSYNLRTFGGGTKLEIK",45,25100,> 500,1290,,
